B1: Nibrin (Homo sapiens), O60934 (parent)
chain: MWKLLPAAGPAGGEPYRLLTGVEYVVGRKNCAILIENDQSISRNHAVLTANFSVTNLSQTDEIPVLTLKDNSKYGTFVNEEKMQNGFSRTLKSGDGITFGVFGSKFRIEYEPLVACSSCLDVSGKTALNQAILQLGGFTVNNWTEECTHLVMVSVKVTIKTICALICGRPIVKPEYFTEFLKAVESKKQPPQIESFYPPLDEPSIGSKNVDLSGRQERKQIFKGKTFIFLNAKQHKKLSSAVVFGGGEARLITEENEEEHNFFLAPGTCVVDTGITNSQTLIPDCQKKWIQSIMDMLQRQGLRPIPEAEIGLAVIFMTTKNYCDPQGHPSTGLKTTTPGPSLSQGVSVDEKLMPSAPVNTTTYVADTESEQADTWDLSERPKEIKVSKMEQKFRMLSQDAPTVKESCKTSSNNNSMVSNTLAKMRIPNYQLSPTKLPSINKSKDRASQQQQTNSIRNYFQPSTKKRERDEENQEMSSCKSARIETSCSLLEQTQPATPSLWKNKEQHLSENEPVDTNSDNNLFTDTDLKSIVKNSASKSHAAEKLRSNKKREMDDVAIEDEVLEQLFKDTKPELEIDVKVQKQEEDVNVRKRPRMDIETNDTFSDEAVPESSKISQENEIGKKRELKEDSLWSAKEISNNDKLQDDSEMLPKKLLLTEFRSLVIKNSTSRNPSGINDDYGQLKNFKKFKKVTYPGAGKLPHIIGGSDLIAHHARKNTELEEWLRQEMEVQNQHAKEESLADDLFRYNPYLKRRR

Experiments:
Settings in all cases: with mdc1_human MDC1, Q14676
mdc1_human MDC1, Q14676 [1] = variants of: B1
mdc1_human MDC1, Q14676 [2] = variants of: B1; remark: listed apart in the source
mdc1_human MDC1, Q14676 [3] = variants of: B1; remark: listed apart in the source

Chain of mdc1_human MDC1, Q14676 (Q14676 whole entry): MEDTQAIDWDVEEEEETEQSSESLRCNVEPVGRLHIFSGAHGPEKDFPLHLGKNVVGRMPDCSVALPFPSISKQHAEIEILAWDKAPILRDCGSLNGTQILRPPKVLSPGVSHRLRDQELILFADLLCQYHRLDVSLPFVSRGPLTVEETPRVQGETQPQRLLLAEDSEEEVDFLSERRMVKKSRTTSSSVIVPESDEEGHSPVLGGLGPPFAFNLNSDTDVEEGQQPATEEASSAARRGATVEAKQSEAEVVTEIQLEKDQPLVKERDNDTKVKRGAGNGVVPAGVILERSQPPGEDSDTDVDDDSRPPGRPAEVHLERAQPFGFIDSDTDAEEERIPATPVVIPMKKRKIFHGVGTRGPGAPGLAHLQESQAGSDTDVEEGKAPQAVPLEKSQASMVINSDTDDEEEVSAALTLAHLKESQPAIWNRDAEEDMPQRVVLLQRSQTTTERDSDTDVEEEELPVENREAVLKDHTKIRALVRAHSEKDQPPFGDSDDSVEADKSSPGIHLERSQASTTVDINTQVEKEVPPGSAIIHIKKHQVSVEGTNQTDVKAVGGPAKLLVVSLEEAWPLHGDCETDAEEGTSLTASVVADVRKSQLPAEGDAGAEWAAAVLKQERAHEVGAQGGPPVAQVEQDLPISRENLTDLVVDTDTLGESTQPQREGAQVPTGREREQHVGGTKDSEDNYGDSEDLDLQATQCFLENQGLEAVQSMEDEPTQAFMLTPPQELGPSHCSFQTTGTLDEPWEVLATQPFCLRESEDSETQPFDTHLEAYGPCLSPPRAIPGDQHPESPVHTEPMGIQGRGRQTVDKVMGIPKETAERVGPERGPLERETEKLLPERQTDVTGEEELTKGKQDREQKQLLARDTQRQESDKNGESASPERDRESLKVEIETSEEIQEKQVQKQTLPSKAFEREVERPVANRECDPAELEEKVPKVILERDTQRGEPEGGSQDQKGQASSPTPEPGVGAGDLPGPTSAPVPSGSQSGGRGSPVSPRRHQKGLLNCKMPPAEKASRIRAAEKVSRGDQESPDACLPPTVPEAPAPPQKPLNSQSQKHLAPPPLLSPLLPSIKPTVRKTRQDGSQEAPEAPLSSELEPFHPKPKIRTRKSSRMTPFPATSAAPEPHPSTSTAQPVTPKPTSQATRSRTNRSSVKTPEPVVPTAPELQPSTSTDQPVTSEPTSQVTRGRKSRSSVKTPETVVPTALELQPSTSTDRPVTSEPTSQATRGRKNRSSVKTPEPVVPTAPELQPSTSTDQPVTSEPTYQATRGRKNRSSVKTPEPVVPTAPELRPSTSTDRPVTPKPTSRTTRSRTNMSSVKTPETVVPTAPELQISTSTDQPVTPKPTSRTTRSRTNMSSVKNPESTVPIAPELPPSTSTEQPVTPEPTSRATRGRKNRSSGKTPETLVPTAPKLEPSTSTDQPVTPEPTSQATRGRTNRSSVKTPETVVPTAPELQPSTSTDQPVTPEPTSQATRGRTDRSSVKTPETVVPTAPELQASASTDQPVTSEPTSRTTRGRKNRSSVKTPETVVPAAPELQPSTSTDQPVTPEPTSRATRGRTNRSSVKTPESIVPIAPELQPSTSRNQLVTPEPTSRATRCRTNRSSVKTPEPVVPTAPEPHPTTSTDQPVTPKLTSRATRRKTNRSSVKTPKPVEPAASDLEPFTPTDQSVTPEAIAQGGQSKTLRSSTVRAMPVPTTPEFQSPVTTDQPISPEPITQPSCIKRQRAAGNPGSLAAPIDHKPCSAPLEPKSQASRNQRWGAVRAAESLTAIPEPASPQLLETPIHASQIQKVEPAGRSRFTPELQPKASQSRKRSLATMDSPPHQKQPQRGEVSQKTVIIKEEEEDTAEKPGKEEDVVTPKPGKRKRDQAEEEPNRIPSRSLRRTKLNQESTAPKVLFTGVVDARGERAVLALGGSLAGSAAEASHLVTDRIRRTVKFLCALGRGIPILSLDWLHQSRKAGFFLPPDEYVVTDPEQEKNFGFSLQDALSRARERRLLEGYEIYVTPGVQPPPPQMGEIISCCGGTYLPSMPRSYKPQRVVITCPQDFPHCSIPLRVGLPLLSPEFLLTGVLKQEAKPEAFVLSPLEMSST

effect of a mutation on the interaction (mdc1_human MDC1, Q14676 [1])	effect of a mutation on the interaction (mdc1_human MDC1, Q14676 [2])	effect of a mutation on the interaction (mdc1_human MDC1, Q14676 [3])	Variant
decreasing interaction	disrupting interaction		R28A
	disrupting interaction	decreasing interaction	K160M

Reference: IntAct's records for PubMed 20224574
